Consider three substances from article PMC7744274.

The target in this assay is SARS-CoV-2 S glycoprotein, prefusion S ectodomain (trimeric SARS-CoV-2 spike) (SARS-CoV-2 | bacteriophage T4) (UniProt P0DTC2). As to the kind of experiment: SPR; Biacore T200; SARS-CoV-2 S (50 ug/ml) captured on Ni2+-loaded NTA chip; ACE2 (His-Tag removed) as analyte, 200 nM to 3.125 nM in triplicate, 50 uL/min, HBS P+ buffer; association 300 s, dissociation 600 s; 1:1 binding model. (In general: In SPR one partner is held on a chip, and binding of the other changes the refractive index at the surface.)

Values joined by “and” are separate entries in the source; they are usually repeats but may differ in a detail not shown here. Identical values can stand only once.

Substance “soluble ACE2 expressed in the presence of 20 uM kifunensine (Kif ACE2) (from UniProt Q9BYF1 18-626) (domain or fragment)” showed an increase of KD against WT ACE2 of 50%.

Broadly, the Kd is the concentration at which binding is half-saturated. A high value points to a looser complex. As for “soluble recombinant ACE2 ectodomain, un-engineered (wild-type form, WT) (from UniProt Q9BYF1 18-626) (domain or fragment)”, the dissociation constant (Kd) was 50 to 100 nM and 76 nM.

In the case of “WT soluble ACE2 treated with alpha2-3,6,8 sialidase (from UniProt Q9BYF1 18-626) (domain or fragment)”, the decrease of KD against WT ACE2 stood at 30 % lower.
